# Laboratory results published in article PMC9361855.
# Legend:
# Factor I = Factor I (UniProt P05156); test: ELISA; conditions: CipA variants coated at 5 ng/µl, FI 10 ng/µl, anti-FI antibody 1:1,000, read off a plot
# [1] = biological target: CipA (hexahistidine-tagged, lacking the N-terminal signal sequence, amino acid residues 19-369) (Acinetobacter baumannii); test: ELISA; CipA immobilised (5 µg/ml), increasing amounts of complement component (0 to 50 nM in the methods; 0 to 25 nM FI in the legend); dissociation constant approximated by non-linear regression, one-site specific binding model
# Sequence of Factor I (P05156 19-335): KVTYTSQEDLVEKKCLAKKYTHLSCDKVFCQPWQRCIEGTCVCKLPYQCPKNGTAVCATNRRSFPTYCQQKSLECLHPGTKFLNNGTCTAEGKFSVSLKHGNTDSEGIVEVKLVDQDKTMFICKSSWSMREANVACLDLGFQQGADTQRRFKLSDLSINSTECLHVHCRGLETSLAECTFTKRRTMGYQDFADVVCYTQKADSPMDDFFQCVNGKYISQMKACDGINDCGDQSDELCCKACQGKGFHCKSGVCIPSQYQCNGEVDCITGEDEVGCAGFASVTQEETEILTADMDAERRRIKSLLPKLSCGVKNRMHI
# Sequence of Factor I (P05156 340-583): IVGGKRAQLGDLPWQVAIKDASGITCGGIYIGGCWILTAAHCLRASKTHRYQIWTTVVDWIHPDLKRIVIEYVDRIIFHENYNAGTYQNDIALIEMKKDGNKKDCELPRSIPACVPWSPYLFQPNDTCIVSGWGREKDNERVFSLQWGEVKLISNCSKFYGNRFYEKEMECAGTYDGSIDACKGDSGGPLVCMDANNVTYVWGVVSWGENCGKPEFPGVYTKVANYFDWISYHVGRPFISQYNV
Substance,response (Absorbance at 490 nm) (Factor I; parent: est. 3.1),response (Absorbance at 490 nm) (Factor I; parent: est. 2.8),also measured
"CipA (hexahistidine-tagged, lacking the N-terminal signal sequence, amino acid residues 19-369) Q361A",3.1,–,–
"CipA (hexahistidine-tagged, lacking the N-terminal signal sequence, amino acid residues 19-369) K365A; K366A; K368A; K369A",–,2.7,–
Factor I (from UniProt P05156 19-335; P05156 340-583) (enzyme),–,–,Kd [1]: 3 nM
"CipA (hexahistidine-tagged, lacking the N-terminal signal sequence, amino acid residues 19-369) L363del; V364del",–,2.7,–
"CipA (hexahistidine-tagged, lacking the N-terminal signal sequence, amino acid residues 19-369) P367del",–,2,–
"CipA (hexahistidine-tagged, lacking the N-terminal signal sequence, amino acid residues 19-369) V364del",–,1.9,–
"CipA (hexahistidine-tagged, lacking the N-terminal signal sequence, amino acid residues 19-369) E360P",0.35,–,–
"CipA (hexahistidine-tagged, lacking the N-terminal signal sequence, amino acid residues 19-369) E360A",2.8,–,–
"CipA (hexahistidine-tagged, lacking the N-terminal signal sequence, amino acid residues 19-369) E362A",2.9,–,–
"CipA (hexahistidine-tagged, lacking the N-terminal signal sequence, amino acid residues 19-369) P367A",–,2.1,–
"CipA (hexahistidine-tagged, lacking the N-terminal signal sequence, amino acid residues 19-369) L363del",–,2,–
